Laboratory results: patent publication US20250090644A1

Experiments:
Assay in all cases: cell-based or functional assay
[1] = target: E. coli expressed recombinant human microplasmin Gly739Ala (human) (UniProt P00747)
[2] = target: E. coli expressed recombinant human microplasmin Glu641Ala (human) (UniProt P00747)
[3] = target: E. coli expressed recombinant human microplasmin Arg582Ala (human) (UniProt P00747)
[4] = target: E. coli expressed recombinant human microplasmin K642A (Table 3) (human) (UniProt P00747)
[5] = target: E. coli expressed recombinant human microplasmin, wild type (human) (UniProt P00747)
[6] = target: E. coli expressed recombinant human microplasmin Pro642Ala (human) (UniProt P00747)
[7] = target: E. coli expressed recombinant human microplasmin Ser608Ala (human) (UniProt P00747)
[8] = target: E. coli expressed recombinant human microplasmin Arg610Ala (human) (UniProt P00747)
[9] = target: E. coli expressed recombinant human microplasmin Met585Ala (human) (UniProt P00747)
[10] = target: E. coli expressed recombinant human microplasmin Lys607Ala (human) (UniProt P00747)
[11] = target: E. coli expressed recombinant human microplasmin Phe587Ala (human) (UniProt P00747)

B1: α2-antiplasmin (protein, UniProt P08697 40-491, looked up)
chain: NQEQVSPLTLLKLGNQEPGGQTALKSPPGVCSRDPTPEQTHRLARAMMAFTADLFSLVAQTSTCPNLILSPLSVALALSHLALGAQNHTLQRLQQVLHAGSGPCLPHLLSRLCQDLGPGAFRLAARMYLQKGFPIKEDFLEQSEQLFGAKPVSLTGKQEDDLANINQWVKEATEGKIQEFLSGLPEDTVLLLLNAIHFQGFWRNKFDPSLTQRDSFHLDEQFTVPVEMMQARTYPLRWFLLEQPEIQVAHFPFKNNMSFVVLVPTHFEWNVSQVLANLSWDTLHPPLVWERPTKVRLPKLYLKHQMDLVATLSQLGLQELFQAPDLRGISEQSLVVSGVQHQSTLELSEVGVEAAAATSIAMSRMSLSSFSVNRPFLFFIFEDTTGLPLFVGSVRNPNPSAPRELKEQQDSPGNKDFLQSLKGFPRGDKLFGPDLKLVPPMEEDYPQFGSPK
α2-AP inhibition of µPlm activity [1]: > 400 nM | IC50 (relative to the µPlm WT enzyme) (fold relative to WT) [2]: 1.6 | IC50 (relative to the µPlm WT enzyme) (fold relative to WT) [3]: 1.6 | IC50 (relative to the µPlm WT enzyme) (fold relative to WT) [4]: 1 | IC50 (relative to the µPlm WT enzyme) (fold relative to WT) [5]: 1 | IC50 of α2-AP inhibition (fold of WT) (fold relative to WT) [6]: 2 | IC50 (relative to the µPlm WT enzyme) (fold relative to WT) [7]: 1.2 | IC50 (relative to the µPlm WT enzyme) (fold relative to WT) [8]: 1.7 | IC50 (relative to the µPlm WT enzyme) (fold relative to WT) [9]: 1.2 | IC50 (relative to the µPlm WT enzyme) (fold relative to WT) [10]: 1 | IC50 (relative to the µPlm WT enzyme) (fold relative to WT) [11]: 3.9 | activity remaining in the presence of α2-AP (% activity remaining) [11]: 50
